{"source": "paper PMC7616792", "about": "“The structural mechanism of dimeric DONSON in replicative helicase activation” (Molecular cell, 2023)", "molecules": {"B1": {"name": "recombinant Xenopus laevis DONSON WT (natural protein)", "chain": "MAELLPGYSPSFKKPSEILRLSRRRSRSEASKTGLSPFSPGDVIKRVPGLRPFSPGPNKGAGVKRRNPFASLENTVCSPVKRRAETVAEYGAASLEPRALSAVRPSCLGQDSPEPPQFNSVEDVIWGDPLAADADPLVKTESPEKPAPACEIPKGSVTFPADWSLKTRLLFTSSHSFSWADHLKAQEEAQGLVMQCRATAVNLPHSIQEPKLSTDLRCAFQQSLVHWIHPSLPWVQLFPRIGVDRKMAGKNTPWSQDESLQQVLMSEWALSFTSLYNLLKAKLCPYFYVCTYQFTVLFRAAGLAGSDVITAVMSPTTRGLREAMKNEGITFSQPLVEDDTGKKQKKPEAASQGDINPEKENGTAEADEASDESDEDESFSWLEEMGVEDKIKKPDSISIKLRKEKNEVKLDHKPESVVLVKGTNTFTLLNFLINCKSIVAAAGLQAGLPPTLLSPVAFRGATMHALKARSVNVKTRVNSGYKDQFSLEITGPIMPHSLHSLTMLLQSAQRGSFSAGLYTHEPTAVFNTPIHSQAVKEISADLQNCGLHPCTVEQLTQVNELGKLSLRHLEMTDYRYTWK", "notes": "DONSON (Downstream neighbor of Son), Xenopus laevis; also called WT DONSON; WT recombinant DONSON; source: E. coli BL21 (DE3), purified (Ni-NTA)"}, "B2": {"name": "DONSON 3A (V473A; R476A; Y481A) (natural protein, Xenopus laevis)", "chain": "B1 chain with V473A, R476A, Y481A", "notes": "DONSON, Xenopus laevis; also called pET28a-DONSON-3A; source: E. coli BL21 (DE3), purified (Ni-NTA)"}, "B3": {"name": "DONSON ΔD1 (Δ1-155) (domain or fragment, Xenopus laevis, UniProt Q5U4U4 156-579, looked up)", "chain": "SVTFPADWSLKTRLLFTSSHSFSWADHLKAQEEAQGLVMQCRATAVNLPHSIQEPKLSTDLRCAFQQSLVHWIHPSLPWVQLFPRIGVDRKMAGKNTPWSQDESLQQVLMSEWALSFTSLYNLLKAKLCPYFYVCTYQFTVLFRAAGLAGSDVITAVMSPTTRGLREAMKNEGITFSQPLVEDDTGKKQKKPEAASQGDINPEKENGTAEADEASDESDEDESFSWLEEMGVEDKIKKPDSISIKLRKEKNEVKLDHKPESVVLVKGTNTFTLLNFLINCKSIVAAAGLQAGLPPTLLSPVAFRGATMHALKARSVNVKTRVNSGYKDQFSLEITGPIMPHSLHSLTMLLQSAQRGSFSAGLYTHEPTAVFNTPIHSQAVKEISADLQNCGLHPCTVEQLTQVNELGKLSLRHLEMTDYRYTWK", "notes": "DONSON, Xenopus laevis, without residues 1-155 (the unstructured D1 loop); also called DONSON DD1 (D1-155); pET28a-DONSON ΔD1; source: recombinant (pET28a vector)"}, "B4": {"name": "DONSON DEW (D374A; E377A; W381A) (natural protein, Xenopus laevis)", "chain": "B1 chain with D374A, E377A, W381A", "notes": "DONSON, Xenopus laevis; also called pET28a-DONSON-DEW; source: E. coli BL21 (DE3), purified (Ni-NTA)"}, "B5": {"name": "DONSON S437A (natural protein, Xenopus laevis)", "chain": "B1 chain with S437A", "notes": "DONSON, Xenopus laevis; also called DONSON Ser437Ala; pET28a-DONSON-S437A; source: E. coli BL21 (DE3), purified (Ni-NTA)"}, "B6": {"name": "DONSON DEWS (D374A; E377A; W381A; S437A) (natural protein, Xenopus laevis)", "chain": "B1 chain with D374A, E377A, W381A, S437A", "notes": "DONSON, Xenopus laevis; also called pET28a-DONSON-DEWS; source: E. coli BL21 (DE3), purified (Ni-NTA)"}, "B7": {"name": "DONSONΔ24 (truncation of residues 1–24) (domain or fragment, Xenopus laevis, UniProt Q5U4U4 25-579, looked up)", "chain": "RSRSEASKTGLSPFSPGDVIKRVPGLRPFSPGPNKGAGVKRRNPFASLENTVCSPVKRRAETVAEYGAASLEPRALSAVRPSCLGQDSPEPPQFNSVEDVIWGDPLAADADPLVKTESPEKPAPACEIPKGSVTFPADWSLKTRLLFTSSHSFSWADHLKAQEEAQGLVMQCRATAVNLPHSIQEPKLSTDLRCAFQQSLVHWIHPSLPWVQLFPRIGVDRKMAGKNTPWSQDESLQQVLMSEWALSFTSLYNLLKAKLCPYFYVCTYQFTVLFRAAGLAGSDVITAVMSPTTRGLREAMKNEGITFSQPLVEDDTGKKQKKPEAASQGDINPEKENGTAEADEASDESDEDESFSWLEEMGVEDKIKKPDSISIKLRKEKNEVKLDHKPESVVLVKGTNTFTLLNFLINCKSIVAAAGLQAGLPPTLLSPVAFRGATMHALKARSVNVKTRVNSGYKDQFSLEITGPIMPHSLHSLTMLLQSAQRGSFSAGLYTHEPTAVFNTPIHSQAVKEISADLQNCGLHPCTVEQLTQVNELGKLSLRHLEMTDYRYTWK", "notes": "DONSON, Xenopus laevis, without residues 1-24; See the note of m17 on a possible Myc tag; also called DONSON D24 (D1-24); pET28a-DONSON Δ24 (1-24 removed); source: E. coli BL21 (DE3), purified (Ni-NTA)"}}, "note": "Residue numbers refer to the chain shown, from its start. Numbers in names are those of the source.", "data": [{"target": "DONSON WM (W234L; M463T) (Xenopus laevis) (UniProt Q5U4U4)", "test": "mass photometry; protein concentration varied (Figure S7); DONSON WM at 20 nM; monomer to dimer", "details": "not given", "values": [{"molecule": "DONSON WM (W234L; M463T) (from UniProt Q5U4U4 1-579) (natural protein)", "stoichiometry N": 2}]}, {"target": "T1, recombinant FLAG5, His6-tagged GINS (Psf1, Psf2, Psf3 and Sld5) (Xenopus laevis, UniProt Q7ZT47 1-196; Q7ZT46 1-185; Q7ZT01 1-210; Q7ZT48 1-221)", "T1 construct": "Psf1, subunit of GINS, Xenopus laevis; Psf2, subunit of GINS, Xenopus laevis; Psf3, subunit of GINS, Xenopus laevis; Sld5, subunit of GINS, Xenopus laevis; also called recombinant GINS; FLAG-tagged GINS; copies: + + +", "T1 sequence (looked up) 1": "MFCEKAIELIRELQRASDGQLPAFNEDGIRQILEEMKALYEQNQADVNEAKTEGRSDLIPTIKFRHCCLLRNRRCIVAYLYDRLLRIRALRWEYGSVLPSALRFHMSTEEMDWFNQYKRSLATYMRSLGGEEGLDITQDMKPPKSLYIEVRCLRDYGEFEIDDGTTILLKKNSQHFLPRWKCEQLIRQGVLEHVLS", "T1 sequence (looked up) 2": "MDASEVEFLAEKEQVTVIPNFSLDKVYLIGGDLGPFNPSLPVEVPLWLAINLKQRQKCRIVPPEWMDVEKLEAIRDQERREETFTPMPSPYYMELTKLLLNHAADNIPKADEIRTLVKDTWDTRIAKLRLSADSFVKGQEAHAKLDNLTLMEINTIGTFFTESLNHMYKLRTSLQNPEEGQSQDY", "T1 sequence (looked up) 3": "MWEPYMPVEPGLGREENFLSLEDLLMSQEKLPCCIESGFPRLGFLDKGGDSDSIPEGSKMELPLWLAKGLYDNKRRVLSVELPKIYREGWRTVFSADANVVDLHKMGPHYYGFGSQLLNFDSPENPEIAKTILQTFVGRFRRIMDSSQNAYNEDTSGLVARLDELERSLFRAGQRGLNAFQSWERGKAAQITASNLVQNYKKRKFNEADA", "T1 sequence (looked up) 4": "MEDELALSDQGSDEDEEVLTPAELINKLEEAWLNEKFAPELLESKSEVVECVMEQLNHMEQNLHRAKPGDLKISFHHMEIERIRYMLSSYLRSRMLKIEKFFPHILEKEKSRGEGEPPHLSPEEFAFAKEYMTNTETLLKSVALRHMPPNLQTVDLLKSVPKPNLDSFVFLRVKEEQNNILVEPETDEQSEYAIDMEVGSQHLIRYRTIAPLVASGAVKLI", "test": "co-IP; recombinant FLAG-tagged GINS immunoprecipitated after incubation with recombinant DONSON variants; blot with an anti-DONSON antibody (Figure S5B)", "details": "both partners purified", "values": [{"molecule": "B1", "binding result": "binds"}, {"molecule": "B2", "binding result": "binds"}]}, {"target": "the molecule itself", "test": "mass photometry; recombinant DONSON proteins diluted ten-fold into Dulbecco PBS to a final concentration of 3 to 5 nM; TwoMP (Refeyn); monomer to dimer", "details": "not given", "values": [{"molecule": "B3", "stoichiometry N": 2}, {"molecule": "B1", "stoichiometry N": 2}, {"molecule": "B4", "stoichiometry N": 2}, {"molecule": "B5", "stoichiometry N": 2}, {"molecule": "B6", "stoichiometry N": 2}, {"molecule": "B2", "stoichiometry N": 2}, {"molecule": "B7", "stoichiometry N": 2}]}]}
